Laboratory results from patent publication CN112724255A (CHENGDU JINKUN BIOTECHNOLOGY CO LTD, dated 2021).

Legend:
[1] = molecular target: T1, 癌胚抗原 (CEA) 抗原 (UniProt P06731 35-685, limits assumed); assay: ELISA, CEA antigen coated; converted from 183.6 ng/ml with the relative molecular mass 27486 g/mol
T1 construct: The CEA antigen used for coating is not described further
T1 sequence (looked up): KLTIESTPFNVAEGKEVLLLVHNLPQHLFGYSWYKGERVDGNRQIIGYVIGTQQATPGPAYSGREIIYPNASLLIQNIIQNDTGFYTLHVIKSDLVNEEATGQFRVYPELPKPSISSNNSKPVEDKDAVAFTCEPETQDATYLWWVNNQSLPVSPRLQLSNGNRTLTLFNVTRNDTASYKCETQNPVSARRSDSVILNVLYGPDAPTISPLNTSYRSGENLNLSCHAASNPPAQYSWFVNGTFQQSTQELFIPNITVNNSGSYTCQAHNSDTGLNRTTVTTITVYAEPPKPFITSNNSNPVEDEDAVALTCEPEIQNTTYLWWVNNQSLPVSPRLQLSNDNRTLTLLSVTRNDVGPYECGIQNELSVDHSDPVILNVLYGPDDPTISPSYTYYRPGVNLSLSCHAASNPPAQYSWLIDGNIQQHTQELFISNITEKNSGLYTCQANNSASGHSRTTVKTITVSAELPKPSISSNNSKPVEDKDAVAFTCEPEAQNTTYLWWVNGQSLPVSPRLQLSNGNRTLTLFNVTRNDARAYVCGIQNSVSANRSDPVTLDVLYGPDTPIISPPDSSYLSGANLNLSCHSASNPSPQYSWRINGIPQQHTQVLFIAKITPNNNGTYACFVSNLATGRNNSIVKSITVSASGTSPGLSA

[2] = molecular target: T1, 癌胚抗原 (CEA) 抗原; assay: ELISA, CEA antigen coated, detection with anti-His-HRP

- EC50 [1]: 6.7 nM
- EC50 [2]: 0.184 µg/mL
B1: 96ScFv 单链抗体 (靶向癌胚抗原的小分子抗体) (scFv)
scFv: MGQVRLRESGPSLVKPSQTLSLTCTVSGFSLTKYGVSWVRQAPGKALEWLGGVSSGALTAYNTALQSRLSVTRDTSKSQFSLSLSSVTTEDTAIYYCAKSVNGDSVPYGLDYWSPGLLITVSSGGGGSGGGGSGGGGSQAVLTQPSSVSGSLGQRVSITCSGSSSNIGGNAYVGWYQQVPGSAPRLLISATTDRASGIPDRFFGSRSGNTATLTISSLQAEDEADYYCASYQSTYSGVFGSGTMLAVLGTVAAPSVFHHHHHHHLGGC
notes: Expressed in E. coli from pET22-96ScFv and purified on Ni resin; The vector adds a C-terminal His tag and a cysteine; also called CEA小分子抗体; 本发明抗体片段
